Source: patent US20210310910A1 (University of California, published 2021)
Ends that are not written are not given here.

Target: T1, TRAP1 (human mitochondrial Hsp90) fused to SpyTag (human, UniProt Q12931 60-704, limits assumed)
T1 construct: Applied at 270 nM; also called TRAP1-SpyTag; TRAP1 with SpyTag
T1 sequence: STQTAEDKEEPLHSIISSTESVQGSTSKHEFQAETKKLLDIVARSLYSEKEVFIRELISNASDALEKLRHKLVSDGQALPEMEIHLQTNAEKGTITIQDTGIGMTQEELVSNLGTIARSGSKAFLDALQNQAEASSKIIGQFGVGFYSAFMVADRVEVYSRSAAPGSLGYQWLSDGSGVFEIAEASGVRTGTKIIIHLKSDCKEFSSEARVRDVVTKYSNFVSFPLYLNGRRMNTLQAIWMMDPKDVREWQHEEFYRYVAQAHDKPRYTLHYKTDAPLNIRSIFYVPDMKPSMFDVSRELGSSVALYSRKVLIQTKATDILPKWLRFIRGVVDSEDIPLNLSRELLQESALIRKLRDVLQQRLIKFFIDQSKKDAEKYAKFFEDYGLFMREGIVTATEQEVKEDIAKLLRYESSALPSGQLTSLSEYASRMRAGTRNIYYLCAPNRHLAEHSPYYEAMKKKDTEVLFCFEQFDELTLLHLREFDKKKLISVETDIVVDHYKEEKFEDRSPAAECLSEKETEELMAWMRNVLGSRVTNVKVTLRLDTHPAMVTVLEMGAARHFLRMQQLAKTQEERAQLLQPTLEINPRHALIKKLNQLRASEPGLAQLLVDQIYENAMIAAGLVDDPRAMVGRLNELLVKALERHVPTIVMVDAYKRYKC
Assay: cryo-EM particle density on SpyTag affinity grid after washing
Experimental: The irreversible covalent bond forms within minutes and is highly specific and robust, paving the way for “purification on the grid”. A buffer with a pH of 7.5 containing 20 mM HEPES, 60 mM KCl was used throughout the process. SpyCatcher was diluted with buffer to a final concentration of 1.4 μM. SpyTag peptide was first dissolved in DMSO to a concentration of 560 μM and then diluted with buffer to a final concentration of 2.8 μM. […] The grid was washed with DI water and ethanol 3 times, and dried in ambient for 1 hour. Then the grid was picked up by tweezers from VITROBOT™ IV (Fisher Thermo Scientfic) and placed horizontally.
After coupling the SpyTag or SpyCatcher to the maleimide grids, incubation with a cognate-tagged protein of interest efficiently formed a stable attachment in a matter of minutes. In a first example, a SpyTag grid was exposed to a dilute solution (270 nM) of the dimeric mitochondrial Hsp90 molecular chaperone (TRAP1, ˜150KDa) fused to either SpyTag (control) or SpyCatcher (cognate sample, total molecular weight ˜165KDa). The grids were extensively washed to remove unbound or loosely adsorbed proteins. TRAP1 with SpyCatcher or SpyTag was diluted in buffer with 1 mM ADP-BeFₓ/MgCl₂ and was incubated at 37° C. for 30 min to achieve a homogenous closed state of TRAP1²⁴. The concentration of TRAP1 was 270 nM in all cases. […]

B1: SpyTag peptide anchored to the graphene oxide grid via a PEG spacer (peptide)
peptide: VPTIVMVDAYKRYKC
modifications: also: Cys coupled to azide-PEG-maleimide on graphene oxide film, position not given here
notes: also called SpyTag grid
B1: no binding (tested: 270 nM).
